Sequences and labels used below:
B1: Myocilin, Q99972 (parent)
chain: MRFFCARCCSFGPEMPAVQLLLLACLVWDVGARTAQLRKANDQSGRCQYTFSVASPNESSCPEQSQAMSVIHNLQRDSSTQRLDLEATKARLSSLESLLHQLTLDQAARPQETQEGLQRELGTLRRERDQLETQTRELETAYSNLLRDKSVLEEEKKRLRQENENLARRLESSSQEVARLRRGQCPQTRDTARAVPPGSREVSTWNLDTLAFQELKSELTEVPASRILKESPSGYLRSGEGDTGCGELVWVGEPLTLRTAETITGKYGVWMRDPKPTYPYTQETTWRIDTVGTDVRQVFEYDLISQFMQGYPSKVHILPRPLESTGAVVYSGSLYFQGAESRTVIRYELNTETVKAEKEIPGAGYHGQFPYSWGGYTDIDLAVDEAGLWVIYSTDEAKGAIVLSKLNPENLELEQTWETNIRKQSVANAFIICGTLYTVSSYTSADATVNFAYDTGTGISKTLTIPFKNRYKYSSMIDYNPLEKKLFAWDNLNMVTYDIKLSKM

In the data set the parent is B1. Particulars: Homo sapiens, pH 6, Thermal, CD, Sodium acetate 10mM, reversible: no, structure 4WXQ, whole UniProt chain shown.

As to R272G, the Tm runs as follows: (CaCl2 1mM) 41 °C; (CaCl2 10mM) 48.6 °C. The “change of melting temperature, mutant - wild type (higher = more stable)” value (“change of melting temperature, mutant” for short) is, setting by setting: (CaCl2 1mM) -12 °C; (CaCl2 10mM) -11 °C.

N480K: where the note is “CaCl2 1mM”, the midpoint of thermal melting (Tm) is 42.4 °C and the “change of melting temperature, mutant” value was -10.6 °C. Under “CaCl2 10mM”, the Tm turned out to be 48.1 °C and the “change of melting temperature, mutant” value is -11.5 °C.

For the variant E385A, where the note is “CaCl2 1mM”, the Tm came out at 39.7 °C and the “change of melting temperature, mutant” value was -13.3 °C. Further, under “CaCl2 10mM”, the Tm came out at 49.7 °C and the “change of melting temperature, mutant” value is -9.9 °C.

In the case of P481L, for the setting “CaCl2 1mM”, the Tm stood at 45.5 °C and the “change of melting temperature, mutant” value was -7.5 °C. Also, for the setting “CaCl2 10mM”, the Tm is 51.2 °C and the “change of melting temperature, mutant” value is -8.4 °C.

On to D273A, for which, under “CaCl2 1mM”, the Tm came out at 21.7 °C and the “change of melting temperature, mutant” value was -31.3 °C. Moreover, for the setting “CaCl2 10mM”, the Tm stood at 21.1 °C and the “change of melting temperature, mutant” value was -38.5 °C.

With V426F, under “CaCl2 1mM”, the Tm was found to be 41.5 °C and the “change of melting temperature, mutant” value was -11.5 °C. Also, for the setting “CaCl2 10mM”, the Tm came to 49.9 °C and the “change of melting temperature, mutant” value was -9.7 °C.

For the variant G246R, where the note is “CaCl2 1mM”, the Tm came to 42.5 °C and the “change of melting temperature, mutant” value is -10.5 °C. Where the note is “CaCl2 10mM”, the Tm was 50.6 °C and the “change of melting temperature, mutant” value was -9 °C.

With K423E, for the setting “CaCl2 1mM”, the Tm came out at 34.2 °C and the “change of melting temperature, mutant” value was -18.8 °C. For the setting “CaCl2 10mM”, the Tm was found to be 43.2 °C and the “change of melting temperature, mutant” value was -16.4 °C.

Turning to E323K, the Tm (CaCl2 1mM) is 44 °C and the melting temperature (Tm) (CaCl2 10mM) is 50.3 °C. Besides, the “change of melting temperature, mutant” value was -9 °C (CaCl2 1mM) and -9.3 °C (CaCl2 10mM).

As for T377M, the Tm (CaCl2 1mM) stood at 44.3 °C and the Tm (CaCl2 10mM) came out at 50.6 °C. Moreover, the “change of melting temperature, mutant” value (CaCl2 1mM) was -8.7 °C and the “change of melting temperature, mutant” value (CaCl2 10mM) is -9 °C.

For G364V, for the setting “CaCl2 1mM”, the Tm worked out at 45 °C and the “change of melting temperature, mutant” value is -8 °C. Besides, where the note is “CaCl2 10mM”, the Tm came out at 51.9 °C and the “change of melting temperature, mutant” value was -7.7 °C.

In the case of C433R, where the note is “CaCl2 1mM”, the Tm worked out at 40.4 °C and the “change of melting temperature, mutant” value was -12.6 °C. Further, where the note is “CaCl2 10mM”, the Tm is 49.4 °C and the “change of melting temperature, mutant” value is -10.2 °C.

On to A427T, for which, for the setting “CaCl2 1mM”, the Tm turned out to be 48.3 °C and the “change of melting temperature, mutant” value was -4.7 °C. Under “CaCl2 10mM”, the Tm came out at 55.2 °C and the “change of melting temperature, mutant” value was -4.4 °C.

With D384A, where the note is “CaCl2 1mM”, the Tm was found to be 42.5 °C and the “change of melting temperature, mutant” value was -10.5 °C.

On to G367R, for which, under “CaCl2 1mM”, the midpoint of thermal melting (Tm) amounted to 42.7 °C and the “change of melting temperature, mutant” value was -10.3 °C. Under “CaCl2 10mM”, the Tm was 50.9 °C and the “change of melting temperature, mutant” value was -8.7 °C.

Consider S502P, for which the Tm (CaCl2 1mM) is 41 °C and the Tm (CaCl2 10mM) came out at 49.9 °C. For the same variant, the “change of melting temperature, mutant” value runs as follows: (CaCl2 1mM) -12 °C; (CaCl2 10mM) -9.7 °C.

As for I477N, for the setting “CaCl2 1mM”, the Tm is 37.7 °C and the “change of melting temperature, mutant” value was -15.3 °C.

Consider I477S, for which, under “CaCl2 1mM”, the Tm was found to be 39.7 °C and the “change of melting temperature, mutant” value is -13.3 °C. In addition, for the setting “CaCl2 10mM”, the Tm came out at 48.2 °C and the “change of melting temperature, mutant” value was -11.4 °C.

With I499F, where the note is “CaCl2 1mM”, the Tm came out at 42.8 °C and the “change of melting temperature, mutant” value was -10.2 °C. Moreover, for the setting “CaCl2 10mM”, the Tm was 50.4 °C and the “change of melting temperature, mutant” value was -9.2 °C.

Take G252R: for the setting “CaCl2 1mM”, the melting temperature (Tm) was determined as 43 °C and the “change of melting temperature, mutant” value was -10 °C. Besides, for the setting “CaCl2 10mM”, the melting temperature (Tm) came to 51.5 °C and the “change of melting temperature, mutant” value is -8.1 °C.

Consider Y437H, for which the Tm turned out to be 40.3 °C (CaCl2 1mM) and 48.6 °C (CaCl2 10mM). Besides, the “change of melting temperature, mutant” value (CaCl2 1mM) is -12.7 °C and the “change of melting temperature, mutant” value (CaCl2 10mM) is -11 °C.

On to D380A, for which, for the setting “CaCl2 1mM”, the Tm was 46.6 °C and the “change of melting temperature, mutant” value is -6.4 °C. For the setting “CaCl2 10mM”, the Tm stood at 45.1 °C and the “change of melting temperature, mutant” value was -14.5 °C.

One may read the Tm as the temperature at the midpoint of the melting transition.

The values above are taken from FireProtDB (doi:10.1074/jbc.m112.408906).
